Reference: patent publication US20200299413A1 (BIOMUNEX PHARMACEUTICALS, published 2020)

Target: CD38 on RPMI-8226 multiple myeloma cells (UniProt P28907 1-300, limits assumed)
Assay: cell-based or functional assay

B1: parental anti-CD38 mAb (daratumumab) (antibody, V domains shown)
VH: EVQLLESGGGLVQPGGSLRLSCAVSGFTFNSFAMSWVRQAPGKGLEWVSAISGSGGGTYYADSVKGRFTISRDNSKNTLYLQMNSLRAEDTAVYFCAKDKILWFGEPVFDYWGQGTLVTVSS
VL: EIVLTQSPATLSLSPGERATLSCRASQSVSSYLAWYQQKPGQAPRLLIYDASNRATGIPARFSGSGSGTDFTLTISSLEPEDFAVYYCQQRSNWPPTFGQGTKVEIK
  ADCC (51Chromium release) EC50 on RPMI-8226 cells, non-pre-activated MNC effectors: 0.3 nM
